Laboratory results taken from patent publication US10662241B1, “HER3 antigen-binding molecules” (Hummingbird Bioscience Holdings Pte. Ltd., priority 2019, dated 2020).
Entries after “also recorded” stand apart in the source; their conditions may differ. Each block holds one molecule with its values, some of them ahead of it.

What was measured:
[1] = test system: HEK293 cells engineered to express HER3; assay: Antibody internalisation, pHrodo imaging, HEK293 HER3; assay type: cell-based; conditions: 120 nM, 24 hours, HEK293 overexpressing HER3
Procedure: (§1) Briefly, 100,000 HEK293 cells engineered to express HER3, HCC95, N87 or OVCAR8 cells were seeded in wells of 96-well tissue culture plates and cultured overnight at 37° C. in 5% CO2. […] The cells in culture were imaged every 30 min for 24 hours, in 4 different fields of each well. The maximum signal intensity in the FITC channel of each field was quantified at 24 hours.

OVCAR8 cells = assay: Antibody internalisation, pHrodo imaging, OVCAR8; assay type: cell-based; conditions: 120 nM, 24 hours
Procedure: as §1

mouse HER3 = molecular target: T1, mouse HER3 (Mus musculus, UniProt Q61526); assay: ELISA cross-reactivity, mouse HER3; assay type: binding
T1 construct: purchased Sino Biological Inc., China
Procedure: (§2) ELISAs were used to determine the binding specificity of the antibodies. The antibodies were analysed for binding to human HER3 polypeptide, as well as respective mouse, rat and monkey homologues of HER3 (Sino Biological Inc., China). The antibodies were also analysed for their ability to bind to human EGFR and human HER2 (Sino Biological Inc., China).
(§3) ELISAs were carried out according to standard protocols. Briefly, 96-well plates (Nunc, Denmark) were coated with 0.1 μg/ml of target polypeptide in phosphate-buffered saline (PBS) for 16 h at 4° C. After blocking for 1 h with 1% BSA in […] (TBS) at room temperature, the anti-HER3 antibody was serially diluted with the highest concentration being 10 μg/ml, and added to the plate, Post 1 h incubation at room temperature, plates were washed three times with TBS containing 0.05% Tween 20 (TBS-T) and were then incubated with a HRP-conjugated anti-His antibody (Life Technologies, Inc., USA) for 1 h at room temperature. After washing, plates were developed with colorimetric detection substrate 3,3′,5,5′-tetramethylbenzidine (Turbo-TMB; Pierce, USA) for 10 min. The reaction was stopped with 2M H2SO4, and OD was measured at 450 nm. […]

rat HER3 = molecular target: T2, rat HER3 (Rattus norvegicus, UniProt Q62799); assay: ELISA cross-reactivity, rat HER3; assay type: binding
T2 construct: purchased Sino Biological Inc., China
Procedure: as §2, §3

cynomolgus macaque HER3 = assay: ELISA cross-reactivity, cynomolgus macaque HER3; assay type: binding
Procedure: as §2, §3

human EGFR = molecular target: T3, human EGFR (Homo sapiens, UniProt P00533); assay: ELISA specificity, human EGFR; assay type: binding; conditions: antibody up to 10 μg/ml
T3 construct: purchased Sino Biological Inc., China
Procedure: as §2
(§4) ELISAs were carried out according to standard protocols. Briefly, 96-well plates (Nunc, Denmark) were coated with 0.1 μg/ml of target polypeptide in phosphate-buffered saline (PBS) for 16 h at 4° C. After blocking for 1 h with 1% BSA in […] (TBS) at room temperature, the anti-HER3 antibody was serially diluted with the highest concentration being 10 μg/ml, and added to the plate, Post 1 h incubation at room temperature, plates were washed three times with TBS containing 0.05% Tween 20 (TBS-T) and were then incubated with a HRP-conjugated anti-His antibody (Life Technologies, Inc., USA) for 1 h at room temperature. […] The reaction was stopped with 2M H2SO4, and OD was measured at 450 nm.
(§5) The antibodies were analysed for their ability to bind to human HER3 polypeptide as well as human HER1 (EGFR) and human HER2 (Sino Biological Inc., China). […]
(§6) ELISAs were carried out according to standard protocols. […] The reaction was stopped with 2M H2SO4, and OD was measured at 450 nm.

human HER2 = molecular target: T4, human HER2 (Homo sapiens, UniProt P04626); assay: ELISA specificity, human HER2; assay type: binding; conditions: antibody up to 10 μg/ml
T4 construct: purchased Sino Biological Inc., China
Procedure: as §2, §4, §5, §6

human HER3 [2] = molecular target: T5, human HER3 (Homo sapiens, UniProt P21860); assay: BLI competition between anti-HER3 antibodies for binding to HER3
Procedure: Bio-Layer Interferometry (BLI) experiments were performed using the Octet QK384 system (ForteBio), anti-Penta-HIS (HIS1K) coated biosensor tips (ForteBio, USA) were used to capture His-tagged human HER3 (75 nM; 300 s). […] The variable region of LJM-716 antibody was cloned in the PDZ vector having human IgG1 and IgKappa Fc backbone.
BLI experiments were performed as described in Example 3.5 with one alteration: 400 nM of competing antibodies were used. The variable regions of M-05-74 and M-08-11 antibodies were cloned in the PDZ vector having human IgG1 and IgKappa Fc backbone.

[3] = test system: HER3-mediated signalling (pHER3, pAKT); assay: Inhibition of HER3-mediated signalling in vitro, phospho-western blot; assay type: cell-based; conditions: N87 and FaDu cells, 50 μg/ml 4 hrs, NRG 100 ng/ml
Procedure: Briefly, N87 and FaDu cells were seeded in wells of a 6 well plate with 10% serum at 37° C., 5% CO2. After 16 hrs, cells were starved by culture overnight in 1% FBS cell culture medium (to reduce signalling elicited by growth factors in the serum). […] Proteins were then extracted, quantified using standard Bradford protein assay, fractionated by SDS-PAGE, and transferred to nitrocellulose membranes. The membranes were then blocked and immunoblotted with the following antibodies overnight at 4° C. anti-pHER3, anti-pAKT, pan anti-HER3, pan anti-AKT and anti-beta-actin. The blots were visualized via Bio-Rad Clarity Western ECL substrate, and bands were quantified using densiometric analysis; data were normalized to beta actin controls.
N87, FaDu or OvCAR8 cells were seeded in wells in a 6 well plate with 10% serum overnight at 37° C. with 5% CO2. […] Antibodies tested were: 10D1F.FcA (10D1), Seribantumab (SBT), Elegemtumab (LJM), Pertuzumab (PTM), Cetuximab (CTX), and Trastuzumab (TZ).
Before harvesting, cells were stimulated with 100 ng/ml of NRG1, Protein extracted from cell lines were quantified using standard Bradford protein assay, Protein samples (50 μg) were fractionated by SDS-PAGE and transferred to nitrocellulose membrane. […] The blots were quantified using densiometric analysis and data was normalised to beta actin. […]

[4] = test system: PI3K/AKT/mTOR and MAPK signalling; assay: Phosphoprotein Antibody Array, FaDu cells; assay type: cell-based; conditions: 50 μg/ml 4 hrs, NRG 100 ng/ml
Procedure: In further experiments the inventors investigated the intracellular signalling pathways affected by anti-HER3 antibody-mediated inhibition of HER3.
FaDu cells were seeded in wells of a 6 well plate with 10% serum at 37° C., 5% CO2. After 16 hrs, cells were starved by culture overnight in 1% FBS cell culture medium. […] Proteins were then extracted, quantified using standard Bradford protein assay, and incubated overnight with pre-blocked Phosphoprotein Antibody Array membrane (Ray Biotech) at 4° C., The membrane was then washed with washing buffer and incubated with detection antibody cocktail for 2 hrs at room temperature, followed by washing and incubation with HRP-Conjugated anti-IgG. After 2 hrs the membrane was washed and probed using the kit detection buffer. Images were captured with Syngene Gbox imaging system, the intensity of each dot/phosphoprotein was measured and percent inhibition was calculated by comparison with intensity measured for cells treated in the same way in the absence of the antibody.

N87 cells = assay: CCK-8 proliferation assay, N87 cells; assay type: cell-based; conditions: N87, 5 days, from 100 μg/ml
Procedure: (§7) Cell proliferation was measuring using the CCK-8 proliferation assay (Dojindo, Japan) after a period of 5 days, in accordance with the manufacturers instructions, Briefly 1×CCK-8 solution was added to each well followed by incubation for 2 h at 37° C. The OD was then measured at 450 nm.

FaDu cells = assay: CCK-8 proliferation assay, FaDu cells; assay type: cell-based; conditions: 5 days, from 100 μg/ml
Procedure: as §7

human HER3 [5] = molecular target: T5, human HER3; assay: Immunohistochemistry of frozen human tissue sections; design: from tissue; host or cells: arrays of frozen tissue sections; conditions: mIgG2a format
Procedure: Anti-HER3 antibody 10D1F in mIgG2a format was evaluated for its ability to be used in immunohistochemistry for the detection of human HER3 protein.
Processing of sections was performed using Bond reagents (Leica Biosystems). Arrays of commercially-available frozen tissue sections were obtained. Slides were dried in a desiccator for 10 min and then subjected to the following treatments, with water washes and/or TBS-T rinses between steps: (i) fixation by treatment with 100% acetone for 10 min at room temperature; (ii) endogenous peroxidase blocking by treatment with 3% (v/v) H2O2 for 15 min at room temperature; (iii) blocking by treatment with 10% goat serum for 30 min at room temperature, (iv) incubation with 10D1F-mIgG2a at 1:250 dilution of a 6.2 mg/ml solution overnight at 4° C., (v) incubation with HRP-polymer conjugated goat anti-mouse antibody for 30 min at room temperature, and (vi) development with Bond Mixed DAB Refine for 5 min at room temperature, followed by rinsing with deionised water and 1× Bond Wash to stop the reaction.
Slides were then dehydrated, mounted in synthetic mounting media and scanned with high resolution.

T2 sequence (Q62799 20-1339): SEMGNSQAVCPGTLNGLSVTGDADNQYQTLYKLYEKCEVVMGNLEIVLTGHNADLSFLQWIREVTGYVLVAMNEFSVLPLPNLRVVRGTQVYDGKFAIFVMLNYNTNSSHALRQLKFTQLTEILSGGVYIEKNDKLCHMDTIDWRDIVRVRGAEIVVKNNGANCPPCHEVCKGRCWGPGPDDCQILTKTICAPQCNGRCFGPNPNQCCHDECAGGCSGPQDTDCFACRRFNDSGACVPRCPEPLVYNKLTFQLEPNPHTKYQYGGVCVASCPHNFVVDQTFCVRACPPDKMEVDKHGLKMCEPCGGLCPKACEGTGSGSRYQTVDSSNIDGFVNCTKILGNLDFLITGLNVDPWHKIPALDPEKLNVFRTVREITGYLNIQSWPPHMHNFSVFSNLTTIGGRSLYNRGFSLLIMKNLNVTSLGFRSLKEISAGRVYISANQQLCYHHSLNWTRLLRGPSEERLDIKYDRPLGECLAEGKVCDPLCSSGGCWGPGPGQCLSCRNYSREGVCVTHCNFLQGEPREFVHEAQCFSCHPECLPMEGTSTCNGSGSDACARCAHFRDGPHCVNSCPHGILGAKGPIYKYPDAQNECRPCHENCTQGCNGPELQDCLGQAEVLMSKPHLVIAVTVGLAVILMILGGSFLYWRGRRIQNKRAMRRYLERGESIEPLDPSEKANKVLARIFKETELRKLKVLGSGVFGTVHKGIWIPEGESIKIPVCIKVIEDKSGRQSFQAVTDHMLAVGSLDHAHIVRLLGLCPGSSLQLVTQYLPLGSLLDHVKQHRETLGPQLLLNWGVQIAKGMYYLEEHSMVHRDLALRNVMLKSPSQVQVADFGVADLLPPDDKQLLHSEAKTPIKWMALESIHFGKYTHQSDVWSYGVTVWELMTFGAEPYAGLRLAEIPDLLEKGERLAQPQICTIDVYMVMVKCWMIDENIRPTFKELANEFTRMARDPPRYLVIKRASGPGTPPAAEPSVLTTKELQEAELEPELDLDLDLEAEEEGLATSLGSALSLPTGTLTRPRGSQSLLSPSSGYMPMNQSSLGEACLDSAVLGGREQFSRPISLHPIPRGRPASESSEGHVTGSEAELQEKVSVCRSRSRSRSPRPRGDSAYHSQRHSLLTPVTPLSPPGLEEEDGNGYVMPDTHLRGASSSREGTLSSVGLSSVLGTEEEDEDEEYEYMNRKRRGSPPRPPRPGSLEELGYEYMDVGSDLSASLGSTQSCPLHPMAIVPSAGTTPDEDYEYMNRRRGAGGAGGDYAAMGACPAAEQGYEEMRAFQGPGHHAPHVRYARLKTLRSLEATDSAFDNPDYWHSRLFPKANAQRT
T1 sequence (Q61526 20-1339): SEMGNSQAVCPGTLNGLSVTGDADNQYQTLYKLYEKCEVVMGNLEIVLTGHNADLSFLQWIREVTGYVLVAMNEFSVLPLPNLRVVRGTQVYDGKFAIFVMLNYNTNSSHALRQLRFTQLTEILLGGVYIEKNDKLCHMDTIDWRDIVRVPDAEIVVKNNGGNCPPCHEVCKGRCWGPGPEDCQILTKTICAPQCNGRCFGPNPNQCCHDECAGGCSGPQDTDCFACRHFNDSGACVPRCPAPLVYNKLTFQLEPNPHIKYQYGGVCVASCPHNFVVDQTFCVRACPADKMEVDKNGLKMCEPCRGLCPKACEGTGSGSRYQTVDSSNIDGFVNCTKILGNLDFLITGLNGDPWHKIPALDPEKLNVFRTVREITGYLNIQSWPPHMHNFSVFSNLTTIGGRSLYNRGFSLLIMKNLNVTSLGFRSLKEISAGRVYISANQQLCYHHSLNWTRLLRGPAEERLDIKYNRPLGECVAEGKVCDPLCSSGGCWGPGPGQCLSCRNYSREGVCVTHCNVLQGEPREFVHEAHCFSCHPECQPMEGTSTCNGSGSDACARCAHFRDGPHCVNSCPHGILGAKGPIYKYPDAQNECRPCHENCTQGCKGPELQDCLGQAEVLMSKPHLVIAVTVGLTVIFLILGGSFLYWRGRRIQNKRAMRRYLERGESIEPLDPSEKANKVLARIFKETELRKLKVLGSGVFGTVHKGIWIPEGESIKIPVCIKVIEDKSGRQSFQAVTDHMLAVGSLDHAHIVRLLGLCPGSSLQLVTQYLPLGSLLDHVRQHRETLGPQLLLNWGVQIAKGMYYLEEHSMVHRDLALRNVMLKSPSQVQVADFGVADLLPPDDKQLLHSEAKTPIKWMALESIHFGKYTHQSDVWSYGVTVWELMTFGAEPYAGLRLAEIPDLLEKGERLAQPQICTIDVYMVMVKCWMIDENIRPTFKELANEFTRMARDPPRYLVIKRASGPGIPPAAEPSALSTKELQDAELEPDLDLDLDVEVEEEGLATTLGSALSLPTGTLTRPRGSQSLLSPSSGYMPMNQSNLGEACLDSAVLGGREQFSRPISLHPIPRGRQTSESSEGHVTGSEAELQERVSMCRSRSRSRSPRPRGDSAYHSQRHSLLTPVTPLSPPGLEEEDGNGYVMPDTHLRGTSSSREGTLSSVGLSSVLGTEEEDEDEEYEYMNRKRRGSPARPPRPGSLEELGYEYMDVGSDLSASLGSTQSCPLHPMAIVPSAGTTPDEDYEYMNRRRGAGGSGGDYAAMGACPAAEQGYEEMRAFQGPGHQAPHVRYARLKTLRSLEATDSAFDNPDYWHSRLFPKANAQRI

Molecule: LJM716: anti-HER3 antibody clone LJM716 (Garner et al., Cancer Res (2013) 73: 6024-6035), also referred to as Elgemtumab [reference compound]
Internalisation [1]: significant internalization | Internalisation (OVCAR8 cells): Modest to moderate internalization

Cross-reactivity with mouse HER3 (mouse HER3): substantial cross-reactivity | Cross-reactivity with rat HER3 (rat HER3): substantial cross-reactivity | Binding to human EGFR (human EGFR): bind to human HER2 and human EGFR | Binding to human HER2 (human HER2): bind to human HER2 and human EGFR
B1: 4-35-B2: anti-HER3 antibody clone; VH = SEQ ID NO:127, VL = SEQ ID NO:135 (antibody, V domains shown)
VH: EIQLQQSGPELVKPGASVKVSCKASGYSFTDYNMYWVKQSHGKSLEWIGHINPYNGGTTYNQKFKGRATLTVDKSSSTAFMHLNSLTSEDSAVYFCVSLRWGAMDYWGQGTSVTVSS
VL: QIVLTQSPALMSASPGEKVTMTCSASSSVSYMYWYQQKPRSSPKPWIYLTSNLASGVPARFSGSGSGTSYSLTISSMEAEDAATYYCQQWNSNPYTFGGGTKLEIK
modifications: 4-35-B2 heavy chain variable region; 4-35-B2 light chain variable region
Cross-reactivity with cynomolgus macaque HER3 (cynomolgus macaque HER3): substantial cross-reactivity

Cross-reactivity with mouse HER3 (mouse HER3): substantial cross-reactivity | Cross-reactivity with rat HER3 (rat HER3): substantial cross-reactivity | Binding to human EGFR (human EGFR): not to bind
B2: 10D1: anti-HER3 antibody clone, parental mouse; VH = SEQ ID NO:24, VL = SEQ ID NO:74 (antibody, V domains shown)
VH: DVQLQESGPDLVKPSQSLSLTCTVTGYSITSGYSWHWIRQFPGNKLEWMGSIHYSGGTNYNPSLKSRISITRDTSKNQFFLQLNSVTTEDTATYFCARMTTAPRYPFDYWGQGTTLTVSS
VL: DIVMTQSQKFMSTSVGDRVSVTCKASQIVGSNVAWYQQKPGQSPKPLIYSASYRYSGVPDRFTASGSGTDFTLTITNVQSEDLAEYFCQQYSSHPLTFGAGTKLELK
modifications: 10D1 heavy chain variable region; 10D1 light chain variable region
Cross-reactivity with cynomolgus macaque HER3 (cynomolgus macaque HER3): substantial cross-reactivity | Competition with MM-121 and/or LJM-716 for binding to HER3 (human HER3 [2]): not to compete with MM-121 and/or LJM-716 for binding to HER3; also recorded: distinct and topologically distant epitope of HER3 than MM-121 and/or LJM-716 | Inhibition of HER3 phosphorylation and downstream signalling [3]: inhibit HER3 phosphorylation and downstream signalling | Inhibition of intracellular signalling pathways [4]: inhibit PI3K/AKT/mTOR and MAPK signalling | Inhibition of cell proliferation (N87 cells): dose-dependent inhibition of cell proliferation | Inhibition of cell proliferation (FaDu cells): dose-dependent inhibition of cell proliferation

B3: 10D1F: Anti-HER3 antibody 10D1F (VH SEQ ID NO:36, VL SEQ ID NO:83) in mIgG2a format, used for immunohistochemistry (antibody, V domains shown)
VH: QVQLQESGPGLVKPSQTLSLTCTVSGYSITSGYSWHWIRQHPGKGLEWIGSIRYSGGTDYNPSLKSLVTISADTSKNQFSLKLSSVTAADTAVYYCARMTTAPWYPFDYWGQGTTVTVSS
VL: DIQMTQSPSSVSASVGDRVTITCKASQIVGSNVAWYQQKPGKAPEPLIYSASYLYSGVPSRFSGSGSGTDFTLTISSLQPEDFATYYCQQYSSHPLTFGQGTKLEIK
modifications: mouse IgG2a constant regions; 10D1_c89 heavy chain variable region; 10D1_c89 light chain variable region
Staining of malignant and normal human tissue sections (human HER3 [5]): preferentially stained malignant human tissue sections, with low cross-reactivity to normal tissue
